Target: the molecule itself
Test: crystal structure

Row | Protein | stoichiometry N
1 | MiD51Δ1–133 (domain or fragment, mouse, UniProt Q8BGV8 134-463, looked up) SLQEKLLSYYRNRAAIPAGEQARAKQAAVDICAELRSFLRAKLPDMPLRDMYLSGSLYDDLQVVTADHIQLIVPLVLEQNLWSCIPGEDTIMNVPGFFLVRRENPEYFPRGSSYWDRCVVGGYLSPKTVADTFEKVVAGSINWPAIGSLLDYVIRPAPPPEALTLEVQYEKDKHLVIDFLPSVTLGDTVLVARPHRLAQYDNLWRLSLRPAETARLRALDQADSGCRSLCLKILKAICKSTPALGHLTASQLTNVILHLAQEEADWSPDMLADRFLQALRGLISYLEAGVLPSALNPKVNLFAELTPQEIDELGYTLYCSLSEPEVLLQT | 2
2 | MiD51 H201A mutant (MiD51Δ1–133 H201A) (domain or fragment, mouse, UniProt Q8BGV8 134-463, looked up) SLQEKLLSYYRNRAAIPAGEQARAKQAAVDICAELRSFLRAKLPDMPLRDMYLSGSLYDDLQVVTADAIQLIVPLVLEQNLWSCIPGEDTIMNVPGFFLVRRENPEYFPRGSSYWDRCVVGGYLSPKTVADTFEKVVAGSINWPAIGSLLDYVIRPAPPPEALTLEVQYEKDKHLVIDFLPSVTLGDTVLVARPHRLAQYDNLWRLSLRPAETARLRALDQADSGCRSLCLKILKAICKSTPALGHLTASQLTNVILHLAQEEADWSPDMLADRFLQALRGLISYLEAGVLPSALNPKVNLFAELTPQEIDELGYTLYCSLSEPEVLLQT | 2

— publication PMC4066849 (Structure (London, England : 1993), 2014)
